The values that follow come from patent US20210147549A1.

The target in experiment [1] is FcγRIIIa on effector cells (Jurkat/FcγRIIIa cells, NK cells) (UniProt P08637). Description: cell-based or functional assay.
In experiment [2] the target is human recombinant CD64 (Fc gamma receptor I) (human) (UniProt P12314). Description: SPR (Biacore T200), construct captured on Protein A, soluble CD64 as analyte. In general terms: In SPR one partner is held on a chip, and binding of the other changes the refractive index at the surface.
The target in experiment [3] is FcγRIIb on cells (TR-FRET assay) (UniProt P31994). Put plainly: TR-FRET competition (CisBio) on cells bearing labeled receptor, vs labeled competitor antibody. On the technique in general: TR-FRET usually uses a lanthanide donor and a delayed reading to cut background.
For experiment [4], the target named is FcγRIIIa V158 on cells (TR-FRET assay) (UniProt P08637). The description is as above.
Experiment [5] addresses FcγRIIa H131 (CD32a) on cells (human) (UniProt P12318). Described as above.

Sequence of FcγRIIIa on effector cells (Jurkat/FcγRIIIa cells, NK cells) (P08637 17-254): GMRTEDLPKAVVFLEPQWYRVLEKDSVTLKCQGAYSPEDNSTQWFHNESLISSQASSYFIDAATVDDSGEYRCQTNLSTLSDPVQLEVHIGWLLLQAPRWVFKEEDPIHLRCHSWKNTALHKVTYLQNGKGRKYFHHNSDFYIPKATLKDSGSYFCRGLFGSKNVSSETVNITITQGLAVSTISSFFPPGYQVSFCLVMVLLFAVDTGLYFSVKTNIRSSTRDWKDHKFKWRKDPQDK
Sequence of human recombinant CD64 (Fc gamma receptor I) (human) (P12314 16-288 limits assumed): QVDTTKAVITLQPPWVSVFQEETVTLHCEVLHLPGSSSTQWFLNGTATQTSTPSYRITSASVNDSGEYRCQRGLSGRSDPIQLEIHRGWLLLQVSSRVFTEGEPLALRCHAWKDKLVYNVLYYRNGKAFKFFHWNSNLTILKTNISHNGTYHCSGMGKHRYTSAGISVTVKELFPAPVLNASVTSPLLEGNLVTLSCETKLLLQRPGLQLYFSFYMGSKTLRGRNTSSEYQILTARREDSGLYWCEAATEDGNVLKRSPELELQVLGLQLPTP
Sequence of FcγRIIa H131 (CD32a) on cells (human) (P12318 34-317): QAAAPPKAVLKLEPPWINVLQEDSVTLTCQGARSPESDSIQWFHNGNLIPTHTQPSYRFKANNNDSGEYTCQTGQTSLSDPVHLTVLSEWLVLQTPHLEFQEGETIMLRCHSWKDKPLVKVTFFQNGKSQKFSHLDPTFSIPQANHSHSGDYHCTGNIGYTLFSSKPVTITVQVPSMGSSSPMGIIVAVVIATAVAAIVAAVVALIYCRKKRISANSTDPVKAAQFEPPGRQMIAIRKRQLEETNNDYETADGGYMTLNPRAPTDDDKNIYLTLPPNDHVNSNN
Sequence of FcγRIIIa V158 on cells (TR-FRET assay) (P08637 17-254 F176V limits assumed): as the sequence (P08637 17-254) above, with F160V counted along it
Sequence of FcγRIIb on cells (TR-FRET assay) (P31994 43-310 limits assumed): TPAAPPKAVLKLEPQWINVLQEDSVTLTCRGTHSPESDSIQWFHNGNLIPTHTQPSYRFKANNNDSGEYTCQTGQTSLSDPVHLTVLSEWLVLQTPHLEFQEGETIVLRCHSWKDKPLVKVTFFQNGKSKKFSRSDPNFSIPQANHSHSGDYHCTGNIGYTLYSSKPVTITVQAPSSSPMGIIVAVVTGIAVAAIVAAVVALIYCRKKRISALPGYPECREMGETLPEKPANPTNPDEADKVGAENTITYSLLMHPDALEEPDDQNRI

Regarding “avelumab anti-PD-L1 monoclonal antibody, afucosylated”, in experiment [1], the EC50 (nM), Mean; ADCC in KILR-A549 cells with NK cells was determined as 0.0054 nM.

As to “avelumab anti-PD-L1 monoclonal antibody, fucosylated (S1A-AA-Ave-001, generated in-house)”, in experiment [1], the EC50 (nM), Mean; FcyRIIIa signaling in an ADCC reporter assay worked out at 0.049 nM. The CD64 Valency by SPR in experiment [2] amounted to 1.3.

For “anti-CD20 monoclonal antibody with the CDRs of Gazyva (obinutuzumab)”, the half-maximal inhibitory concentration (IC50) in experiment [3] amounted to 3290 nM; in experiment [4] it was 428 nM; in experiment [5], 1270 nM. For the same substance, in experiment [2], the CD64 Valency by SPR was 1.5.

For orientation: IC50 means the point on the concentration scale where inhibition reaches its midpoint. Low readings indicate higher potency, high ones lower potency.
